Test results from US20060093602A1.

Target: gp130 on HepG2 B6 cells (UniProt P40189)
Assay: cell-based or functional assay

Sequence of gp130 on HepG2 B6 cells (P40189 23-918 limits assumed): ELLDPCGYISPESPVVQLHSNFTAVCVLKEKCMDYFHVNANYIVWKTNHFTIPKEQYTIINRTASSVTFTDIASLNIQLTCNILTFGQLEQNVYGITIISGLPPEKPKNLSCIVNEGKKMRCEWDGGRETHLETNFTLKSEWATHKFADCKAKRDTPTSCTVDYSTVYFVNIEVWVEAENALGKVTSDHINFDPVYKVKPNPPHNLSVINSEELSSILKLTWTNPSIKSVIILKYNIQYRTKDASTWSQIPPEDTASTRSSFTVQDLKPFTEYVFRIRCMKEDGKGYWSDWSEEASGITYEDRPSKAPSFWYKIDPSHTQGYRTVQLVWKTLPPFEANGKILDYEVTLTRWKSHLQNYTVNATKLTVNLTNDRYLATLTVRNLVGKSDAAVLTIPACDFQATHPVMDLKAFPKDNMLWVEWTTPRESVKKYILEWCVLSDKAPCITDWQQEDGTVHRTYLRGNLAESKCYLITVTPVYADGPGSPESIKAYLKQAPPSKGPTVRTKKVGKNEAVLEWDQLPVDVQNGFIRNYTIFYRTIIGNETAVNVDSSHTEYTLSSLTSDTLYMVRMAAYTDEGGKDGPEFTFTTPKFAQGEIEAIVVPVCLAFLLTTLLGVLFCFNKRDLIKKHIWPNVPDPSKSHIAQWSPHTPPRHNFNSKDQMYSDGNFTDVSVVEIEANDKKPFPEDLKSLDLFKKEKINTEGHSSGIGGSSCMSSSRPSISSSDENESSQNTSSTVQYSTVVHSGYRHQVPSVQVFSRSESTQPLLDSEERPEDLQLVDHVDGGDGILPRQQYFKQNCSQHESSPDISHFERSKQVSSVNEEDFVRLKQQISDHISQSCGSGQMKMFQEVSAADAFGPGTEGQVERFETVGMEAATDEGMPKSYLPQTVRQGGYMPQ

## OSM-GST L13A (from UniProt P08515 1-218) (ligand)
  EC50, sPAP, HepG2 B6, Expt 1: 0.0657 µg/mL
  EC50, sPAP, HepG2 B6, Expt 2: 0.0549 µg/mL
  EC50 as % of wild type, sPAP, HepG2 B6, Expt 1: 269%
  EC50 as % of wild type, sPAP, HepG2 B6, Expt 2: 171%
  mean EC50 as % of wild type, sPAP, HepG2 B6: 220%
